Measured values: patent US20080312158A1 (University of California, published 2008)

Target: the molecule itself
Assay: aggregation assay of S2 cells transfected with fasciclin IV (homophilic adhesion)
Source text: To ask whether fasciclin IV can function as a homophilic cell adhesion molecule, the fasciclin IV cDNA with the complete ORF was placed under the control of the inducible metallothionein promoter (Bunch et al. 1988). transfected into S2 cells, and assayed for its ability to promote adhesion in normally non-adhesive S2 cells. Following induction with copper, fasciclin IV was synthesized in these S2 cells as shown by Western blot analysis and cell surface staining of induced S2 cells with the polyclonal antiserum described above.
A restriction fragment containing the full length fasciclin IV cDNA was cloned into pRmHa-3 (Bunch et al, 1988) and co-transformed into Drosophila S2 cells (Schneider, 1972) with the plasmid pPC4 (Jokerst et al., 1989), which confers a-amanitin resistance. S2 cells were transformed using the Lipofectin Reagent and recommended protocol (BRL) with minor modifications. All other S2 cell manipulations are essentially as described (Snow et al., 1989), including adhesion assays. Fasciclin IV expression in transformed cell lines was induced for adhesion assays and histology by adding CuSO₄ to 0.7 mM and incubating for at least 48 hrs. […] Amount of protein per lane in each sample loaded: fasciclin IV protein, ˜5 ng; S2 cell membranes, […]; grasshopper membranes […]. […]

B1: Grasshopper fasciclin IV (now called G-Semaphorin I) (other)
chain: WVNDVSPKMYVQFGEERVQRFLGNESHKDHFKLLEKDHNSLLVGARNIVYNISLRDLTEFTEQRIEWHSSGAHRELCYLKGKSEDDCQNYIRVLAKIDDDRVLICGTNAYKPLCRHYALKDGDYVVEKEYEGRGLCPFDPDHNSTAIYSEGQLYSATVADFSGTDPLIYRGPLRTERSDLKQLNAPNFVNTMEYNDFIFFFFRETAVEYINCGKAIYSRVARVCKHDKGGPHQGGDRWTSFLKSRLNCSVPGDYPFYFNEIQSTSDIIEGNYGGQVEKLIYGVFTTPVNSIGGSAVCAFSMKSILESFDGPFKEQETMNSNWLAVPSLKVPEPRPGQCVNDSRTLPDVSVNFVKSHTLMDEAVPAFFTRPILIRISLQYRFTKIAVDQQVRTPDGKAYDVLFIGTDDGKVIKALNSASFDSSDTVDSVVIEELQVLPPGVPVKNLYVVRMDGDDSKLVVVSDDEILAIKLHRCGSDKITNCRECVSLQDPYCAWDNVELKCTAVGSPDWSAGKRRFIQNISLGEHKACGGRPQTEIVASPVPTQPTTKSSGDPVHSIHQAEFEPEIDNEIVIGVDDSNVIPNTLAEINHAGSKLPSSQEKLPIYTAETLTIAIVTSCLGALVVGFISGFLFSRRCRGEDYTDMPFPDQRHQLNRLTEAGLNADSPYLPPCANNKAAINLVLNVPPKNANGKNANSSAENKPIQKVKKTYI
modifications: N-linked oligosaccharides (shown by N-Glycanase treatment)
notes: also called 6F8 antigen; grasshopper Semaphorin I
Question: Does B1 bind?
Answer: Result: no binding
